{"source": "paper PMC3305808", "about": "(Molecular Microbiology, 2012)", "data": [{"target": "the molecule itself", "experiment": "λ cI repressor fusion dimerization assay", "units": {"% repression of λpR-lacZ": "%"}, "values": [{"protein": "λcIDB-AaTadZ (TadZ of Aggregatibacter actinomycetemcomitans fused to the N-terminal DNA-binding domain of λ cI) (natural protein) MLLLDQETITADSARTITVVSSRDDIQGEVAQTLRTRGLENIEIVKKDFFTSSDEISFSAEDTVGVIIDITHETNIKTIVERVFSVVPQNVWCCVIGDSDSISLSQKLLDEGILYFNSHTQLSQMVEKIILGVDIPRLRDTVKIAVLSCKGGIGASLISSHIANEIVSSKKIPVLLAQGPNGSQDLDLLFDKKLSGNVIEYAPNLDIFNGGLFELTPAATEKYNFIIYDQPIYNVKKDNFIGFLENYNNFVLVVERKIGSLRLAKQFLDECERIRSTSRKPIRTFVCISDNRLEAAKLMAKNDIETLIGSSIDAIIPYVKNTNTKTVLGINLGRDGKKEINSLMLKVIGAISRSSKPKEKQSLFSSFFTKLIKQ", "% repression of λpR-lacZ": 60.1}, {"protein": "λcIDB-AaTadZ K150R (natural protein) MLLLDQETITADSARTITVVSSRDDIQGEVAQTLRTRGLENIEIVKKDFFTSSDEISFSAEDTVGVIIDITHETNIKTIVERVFSVVPQNVWCCVIGDSDSISLSQKLLDEGILYFNSHTQLSQMVEKIILGVDIPRLRDTVKIAVLSCRGGIGASLISSHIANEIVSSKKIPVLLAQGPNGSQDLDLLFDKKLSGNVIEYAPNLDIFNGGLFELTPAATEKYNFIIYDQPIYNVKKDNFIGFLENYNNFVLVVERKIGSLRLAKQFLDECERIRSTSRKPIRTFVCISDNRLEAAKLMAKNDIETLIGSSIDAIIPYVKNTNTKTVLGINLGRDGKKEINSLMLKVIGAISRSSKPKEKQSLFSSFFTKLIKQ", "% repression of λpR-lacZ": 49}, {"protein": "λcIDB-AaTadZ K150A (natural protein) MLLLDQETITADSARTITVVSSRDDIQGEVAQTLRTRGLENIEIVKKDFFTSSDEISFSAEDTVGVIIDITHETNIKTIVERVFSVVPQNVWCCVIGDSDSISLSQKLLDEGILYFNSHTQLSQMVEKIILGVDIPRLRDTVKIAVLSCAGGIGASLISSHIANEIVSSKKIPVLLAQGPNGSQDLDLLFDKKLSGNVIEYAPNLDIFNGGLFELTPAATEKYNFIIYDQPIYNVKKDNFIGFLENYNNFVLVVERKIGSLRLAKQFLDECERIRSTSRKPIRTFVCISDNRLEAAKLMAKNDIETLIGSSIDAIIPYVKNTNTKTVLGINLGRDGKKEINSLMLKVIGAISRSSKPKEKQSLFSSFFTKLIKQ", "% repression of λpR-lacZ": 60.3}, {"protein": "λcIDB-AaTadZ A155K (natural protein) MLLLDQETITADSARTITVVSSRDDIQGEVAQTLRTRGLENIEIVKKDFFTSSDEISFSAEDTVGVIIDITHETNIKTIVERVFSVVPQNVWCCVIGDSDSISLSQKLLDEGILYFNSHTQLSQMVEKIILGVDIPRLRDTVKIAVLSCKGGIGKSLISSHIANEIVSSKKIPVLLAQGPNGSQDLDLLFDKKLSGNVIEYAPNLDIFNGGLFELTPAATEKYNFIIYDQPIYNVKKDNFIGFLENYNNFVLVVERKIGSLRLAKQFLDECERIRSTSRKPIRTFVCISDNRLEAAKLMAKNDIETLIGSSIDAIIPYVKNTNTKTVLGINLGRDGKKEINSLMLKVIGAISRSSKPKEKQSLFSSFFTKLIKQ", "% repression of λpR-lacZ": 49.7}, {"protein": "λcIDB-AaTadZ S156T (natural protein) MLLLDQETITADSARTITVVSSRDDIQGEVAQTLRTRGLENIEIVKKDFFTSSDEISFSAEDTVGVIIDITHETNIKTIVERVFSVVPQNVWCCVIGDSDSISLSQKLLDEGILYFNSHTQLSQMVEKIILGVDIPRLRDTVKIAVLSCKGGIGATLISSHIANEIVSSKKIPVLLAQGPNGSQDLDLLFDKKLSGNVIEYAPNLDIFNGGLFELTPAATEKYNFIIYDQPIYNVKKDNFIGFLENYNNFVLVVERKIGSLRLAKQFLDECERIRSTSRKPIRTFVCISDNRLEAAKLMAKNDIETLIGSSIDAIIPYVKNTNTKTVLGINLGRDGKKEINSLMLKVIGAISRSSKPKEKQSLFSSFFTKLIKQ", "% repression of λpR-lacZ": 53.7}, {"protein": "λcIDB-AaTadZ S156A (natural protein) MLLLDQETITADSARTITVVSSRDDIQGEVAQTLRTRGLENIEIVKKDFFTSSDEISFSAEDTVGVIIDITHETNIKTIVERVFSVVPQNVWCCVIGDSDSISLSQKLLDEGILYFNSHTQLSQMVEKIILGVDIPRLRDTVKIAVLSCKGGIGAALISSHIANEIVSSKKIPVLLAQGPNGSQDLDLLFDKKLSGNVIEYAPNLDIFNGGLFELTPAATEKYNFIIYDQPIYNVKKDNFIGFLENYNNFVLVVERKIGSLRLAKQFLDECERIRSTSRKPIRTFVCISDNRLEAAKLMAKNDIETLIGSSIDAIIPYVKNTNTKTVLGINLGRDGKKEINSLMLKVIGAISRSSKPKEKQSLFSSFFTKLIKQ", "% repression of λpR-lacZ": 57.6}]}]}
